Paper PMC7733459, “A serine protease secreted from Bacillus subtilis cleaves human plasma transthyretin to generate an amyloidogenic fragment” (Communications Biology, 2020)

Target: the molecule itself
Test: dynamic light scattering + native gel or EMSA; fragment at 0.23 mg/ml in 10 mM phosphate buffer, pH 7.4, 25 °C, immediately after dissolving the lyophilisate; native PAGE 5–12% acrylamide

B1: hTTR(59–127) (domain or fragment)
chain: not shown
notes: transthyretin, human, C-terminal proteolytic fragment Thr59-Glu127 (7757.4 Da) from cleavage at the Leu58-Thr59 bond; also called Thr59-Glu127 peptide; source: cleavage of plasma-purified hTTR by B. subtilis subtilisin, purified by semi-preparative RP-HPLC, lyophilized
binding result: binds
